Holding throughout (experiment): fluorescence quenching titration
Series [1] has as its target SMC2 hinge long (mSMC2h of mSMC2h4h-l);SMC4 hinge long (mSMC4h of mSMC2h4h-l) (mouse;mouse) (UniProt Q8CG48+Q8CG47).
In series [2] the target is SMC2 hinge long (mSMC2h of mSMC2h4h-l);SMC4 hinge long (mSMC4h of mSMC2h4h-l) (mouse;mouse, UniProt Q8CG48;Q8CG47 492-680;581-766, |).
The target in series [3] is SMC2 hinge long K566E;SMC4 hinge long (mSMC4h of mSMC2h4h-l) (mouse;mouse, UniProt Q8CG48;Q8CG47 492-680;581-766, K566E|).
SMC2 hinge long K566E;SMC4 hinge long (mSMC4h of mSMC2h4h-l), sequence (Q8CG48 492-680 K566E, chain 1 of 2): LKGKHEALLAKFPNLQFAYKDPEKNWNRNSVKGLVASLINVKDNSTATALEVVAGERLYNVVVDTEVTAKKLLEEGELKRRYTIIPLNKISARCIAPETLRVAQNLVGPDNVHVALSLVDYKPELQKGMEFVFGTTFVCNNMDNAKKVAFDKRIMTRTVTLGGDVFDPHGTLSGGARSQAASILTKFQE
SMC2 hinge long K566E;SMC4 hinge long (mSMC4h of mSMC2h4h-l), sequence (Q8CG47 581-766, chain 2 of 2): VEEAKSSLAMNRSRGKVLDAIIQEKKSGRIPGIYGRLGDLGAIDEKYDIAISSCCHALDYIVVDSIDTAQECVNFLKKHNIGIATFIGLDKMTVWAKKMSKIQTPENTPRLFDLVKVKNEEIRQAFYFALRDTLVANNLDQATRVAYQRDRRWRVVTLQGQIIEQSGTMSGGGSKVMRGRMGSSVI
For series [4], the target named is SMC2 hinge long K566E;SMC4 hinge long K657E (mouse;mouse, UniProt Q8CG48;Q8CG47 492-680;581-766, K566E|K657E).
SMC2 hinge long K566E;SMC4 hinge long K657E, sequence (Q8CG48 492-680 K566E, chain 1 of 2): as the sequence (Q8CG48 492-680 K566E, chain 1 of 2) above
SMC2 hinge long K566E;SMC4 hinge long K657E, sequence (Q8CG47 581-766 K657E, chain 2 of 2): as the sequence (Q8CG47 581-766, chain 2 of 2) above, with K77E counted along it
Series [5] concerns the target SMC2 hinge long K613E;SMC4 hinge long K698E (mouse;mouse, UniProt Q8CG48;Q8CG47 492-680;581-766, K613E|K698E).

SMC2 hinge long (mSMC2h of mSMC2h4h-l);SMC4 hinge long (mSMC4h of mSMC2h4h-l) (mouse;mouse), sequence (Q8CG48 492-680, chain 1 of 2): as the sequence (Q8CG48 492-680 K566E, chain 1 of 2) above, with E75K counted along it
SMC2 hinge long (mSMC2h of mSMC2h4h-l);SMC4 hinge long (mSMC4h of mSMC2h4h-l) (mouse;mouse), sequence (Q8CG47 581-766, chain 2 of 2): as the sequence (Q8CG47 581-766, chain 2 of 2) above
SMC2 hinge long (mSMC2h of mSMC2h4h-l);SMC4 hinge long (mSMC4h of mSMC2h4h-l), sequence (Q8CG48 492-680, chain 1 of 2): as the sequence (Q8CG48 492-680 K566E, chain 1 of 2) above, with E75K counted along it
SMC2 hinge long (mSMC2h of mSMC2h4h-l);SMC4 hinge long (mSMC4h of mSMC2h4h-l), sequence (Q8CG47 581-766, chain 2 of 2): as the sequence (Q8CG47 581-766, chain 2 of 2) above
SMC2 hinge long K613E;SMC4 hinge long K698E, sequence (Q8CG48 492-680 K613E, chain 1 of 2): as the sequence (Q8CG48 492-680 K566E, chain 1 of 2) above, with E75K, K122E counted along it
SMC2 hinge long K613E;SMC4 hinge long K698E, sequence (Q8CG47 581-766 K698E, chain 2 of 2): as the sequence (Q8CG47 581-766, chain 2 of 2) above, with K118E counted along it

The term Kd denotes the equilibrium constant for the complex coming apart. Low values mean tighter binding, high ones weaker binding. In turn, “CATCCTGTCCGCTGC / CCGGAGAGCATCTCG / GCAGCGGACAGGATGTTTTTTTTTTTTTTTCGAGATGCTCTCCGG [45-mer ds-ss-dsDNA]” had a Kd in series [1] of 660 nM.
On the same count and under the same terms, in the case of “CATCCTGTCCGCTGC / GCAGCGGACAGGATGTTTTTTTTTTTTTTT [30-mer ds-ssDNA-3']” it was 1550 nM.
Still for that read-out and setting: under “CATCCTGTCCGCTGC / TTTTTTTTTTTTTTTGCAGCGGACAGGATG [30-mer ds-ssDNA-5']” stands 1770 nM.
With TTTTTTTTTTTTTTT (ssDNA) [15-mer ssDNA], in series [2], the Kd is 3210 ± 140 nM.
For TTTTTTTTTTTTTTTTTTTTTTTTTTTTTT (ssDNA) [30-mer ssDNA], the Kd in series [2] was determined as 450 ± 40 nM; in series [3] it was 1800 ± 80 nM; in series [4], 3260 ± 580 nM; in series [5], 2950 ± 300 nM.

(Values after publication PMC2879519.)
